The source of these data is IntAct's records for PubMed 16832058.

First the molecules themselves.
B1: Proliferation-associated protein 2G4 (Homo sapiens), Q9UQ80 (parent)
chain: MSGEDEQQEQTIAEDLVVTKYKMGGDIANRVLRSLVEASSSGVSVLSLCEKGDAMIMEETGKIFKKEKEMKKGIAFPTSISVNNCVCHFSPLKSDQDYILKEGDLVKIDLGVHVDGFIANVAHTFVVDVAQGTQVTGRKADVIKAAHLCAEAALRLVKPGNQNTQVTEAWNKVAHSFNCTPIEGMLSHQLKQHVIDGEKTIIQNPTDQQKKDHEKAEFEVHEVYAVDVLVSSGEGKAKDAGQRTTIYKRDPSKQYGLKMKTSRAFFSEVERRFDAMPFTLRAFEDEKKARMGVVECAKHELLQPFNVLYEKEGEFVAQFKFTVLLMPNGPMRITSGPFEPDLYKSEMEVQDAELKALLQSSASRKTQKKKKKKASKTAENATSGETLEENEAGD

The variants in this assay derive from B1. As to conditions: with erbb3_rat Erbb3, Q62799.
Sequence of erbb3_rat Erbb3, Q62799 (Q62799 whole entry): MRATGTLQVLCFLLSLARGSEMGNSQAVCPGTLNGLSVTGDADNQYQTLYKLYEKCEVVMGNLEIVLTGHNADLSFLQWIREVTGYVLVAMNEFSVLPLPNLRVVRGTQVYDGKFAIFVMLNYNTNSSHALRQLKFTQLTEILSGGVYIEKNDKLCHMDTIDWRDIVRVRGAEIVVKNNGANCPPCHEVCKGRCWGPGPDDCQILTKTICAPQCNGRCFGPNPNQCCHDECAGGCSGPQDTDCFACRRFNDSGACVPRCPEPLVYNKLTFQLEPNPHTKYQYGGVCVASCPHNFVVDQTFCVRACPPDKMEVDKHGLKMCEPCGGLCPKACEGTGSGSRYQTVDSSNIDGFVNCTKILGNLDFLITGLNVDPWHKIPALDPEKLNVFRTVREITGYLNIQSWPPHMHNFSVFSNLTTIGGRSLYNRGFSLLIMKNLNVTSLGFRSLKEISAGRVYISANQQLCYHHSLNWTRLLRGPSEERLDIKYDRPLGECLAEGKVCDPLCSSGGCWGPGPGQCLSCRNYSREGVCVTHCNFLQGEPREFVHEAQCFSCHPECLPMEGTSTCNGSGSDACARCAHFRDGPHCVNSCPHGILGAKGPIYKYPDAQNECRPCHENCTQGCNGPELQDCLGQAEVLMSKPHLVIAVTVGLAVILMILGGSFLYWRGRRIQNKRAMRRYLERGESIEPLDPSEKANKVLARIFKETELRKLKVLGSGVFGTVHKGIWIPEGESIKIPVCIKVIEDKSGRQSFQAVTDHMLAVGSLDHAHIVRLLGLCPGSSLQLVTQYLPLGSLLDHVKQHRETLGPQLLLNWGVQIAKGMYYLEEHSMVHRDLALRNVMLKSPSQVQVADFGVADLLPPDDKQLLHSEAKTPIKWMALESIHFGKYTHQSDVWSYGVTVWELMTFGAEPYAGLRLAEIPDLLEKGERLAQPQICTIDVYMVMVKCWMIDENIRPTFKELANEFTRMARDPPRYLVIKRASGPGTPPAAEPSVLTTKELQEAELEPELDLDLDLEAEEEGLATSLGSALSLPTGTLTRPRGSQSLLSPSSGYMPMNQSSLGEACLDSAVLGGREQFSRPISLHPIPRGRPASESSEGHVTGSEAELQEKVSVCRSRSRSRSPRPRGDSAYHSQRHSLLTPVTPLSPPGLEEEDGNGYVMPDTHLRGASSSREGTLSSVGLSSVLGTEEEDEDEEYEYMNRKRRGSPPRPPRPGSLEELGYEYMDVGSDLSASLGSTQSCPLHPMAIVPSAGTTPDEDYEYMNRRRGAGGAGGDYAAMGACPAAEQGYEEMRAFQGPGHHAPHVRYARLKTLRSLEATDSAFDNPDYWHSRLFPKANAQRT
Consider MSGEDEQQEQTIAEDLVVTKYKMGGDIANRVLRSLVEASSSGVSVLSLCEKGDAMIMEETGKIFKKEKEMKKGIAFPTSISVNNCVCHFSPLKSDQDYILKEGDLVKIDLGVHVDGFIANVAHTFVVDVAQGTQVTGRKADVIKAAHLCAEAALRLVKPGNQNTQVTEAWNKVAHSFNCTPIEGMLSHQLKQHVIDGEKTIIQNPTDQQKKDHEKAEFEVHEVYAVDVLVSSGEGKAKDAGQRTTIYKRDPSKQYGLKMKTSRAFFSEVERRFDAMPFTLRAFEDEKKARMGVVECAKHELLQPFNVLYEKEGEFVAQFKFTVLLMPNGPMRITSGPFEPDLYKSEMEVQDAELKALLQASASRKTQKKKKKKASKTAENATSGETLEENEAGD [S360A], for which the “effect of a mutation on the interaction” value is “disrupting interaction strength”.
